B1: BBSome complex member BBS4 (Homo sapiens), Q96RK4 (parent)
chain: MAEERVATRTQFPVSTESQKPRQKKAPEFPILEKQNWLIHLHYIRKDYEACKAVIKEQLQETQGLCEYAIYVQALIFRLEGNIQESLELFQTCAVLSPQSADNLKQVARSLFLLGKHKAAIEVYNEAAKLNQKDWEISHNLGVCYIYLKQFNKAQDQLHNALNLNRHDLTYIMLGKIHLLEGDLDKAIEVYKKAVEFSPENTELLTTLGLLYLQLGIYQKAFEHLGNALTYDPTNYKAILAAGSMMQTHGDFDVALTKYRVVACAVPESPPLWNNIGMCFFGKKKYVAAISCLKRANYLAPFDWKILYNLGLVHLTMQQYASAFHFLSAAINFQPKMGELYMLLAVALTNLEDIENAKRAYAEAVHLDKCNPLVNLNYAVLLYNQGEKKNALAQYQEMEKKVSLLKDNSSLEFDSEMVEMAQKLGAALQVGEALVWTKPVKDPKSKHQTTSTSKPASFQQPLGSNQALGQAMSSAAAYRTLPSGAGGTSQFTKPPSLPLEPEPAVESSPTETSEQIREK
partner: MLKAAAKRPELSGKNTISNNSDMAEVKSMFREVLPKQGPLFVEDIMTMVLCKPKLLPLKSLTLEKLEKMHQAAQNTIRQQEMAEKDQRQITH

Variants of: B1
Details: with bbip1_human BBIP1, A8MTZ0

Variant	effect of a mutation on the interaction
MAEERVATRTQFPVSTESQKPRQKKAPEFPILEKQNWLIHLHYIRKDYEACKAVIKEQLQETQGLCEYAIYVQALIFRLEGNIQESLELFQTCAVLSPQSADNLKQVARSLFLLGKHKAAIEVYNEAAKLNQKDWEISHNLGVCYIYLKQFNKAQDQLHNALNLNRHDLTYIMLGKIHLLEGDLDKAIEVYKKAVEFSPENTELLTTLGLLYLQLGIYQKAFEHLGNALTYDPTNYKAILAAGSMMQTHGDFDVALTKYRVVACAVPESPPLWNNIGMCFFGKKKYVAAISCLKRANYLAPFDWKILYNLGLVHLTMQQYASAFHFLSAAINFQPKMGELYMLLAVALTNLEDIENAKAAYAEAVHLDKCNPLVNLNYAVLLYNQGEKKNALAQYQEMEKKVSLLKDNSSLEFDSEMVEMAQKLGAALQVGEALVWTKPVKDPKSKHQTTSTSKPASFQQPLGSNQALGQAMSSAAAYRTLPSGAGGTSQFTKPPSLPLEPEPAVESSPTETSEQIREK [R359A]	with no effect
MAEERVATRTQFPVSTESQKPRQKKAPEFPILEKQNWLIHLHYIRKDYEACKAVIKEQLQETQGLCEYAIYVQALIFRLEGNIQESLELFQTCAVLSPQSADNLKQVARSLFLLGKHKAAIEVYNEAAKLNQKDWEISHNLGVCYIYLKQFNKAQDQLHNALNLNRHDLTYIMLGKIHLLEGDLDKAIEVYKKAVEFSPENTELLTTLGLLYLQLGIYQKAFEHLGNALTYDPTNYKAILAAGSMMQTHGDFDVALTKYRVVACAVPESPPLWNNIGMCFFGKKKYVAAISCLKRANYLAPFDWKILYNLGLVHLTMQQYASAFHFLSAAINFQPKMGELYMLLAVALTNLEDIENAKRAYAEAVHLDKCNPLVNLNYAVLLYNQGEKKNALAQYQEMEKKVSLLKENSSLEFDSEMVEMAQKLGAALQVGEALVWTKPVKDPKSKHQTTSTSKPASFQQPLGSNQALGQAMSSAAAYRTLPSGAGGTSQFTKPPSLPLEPEPAVESSPTETSEQIREK [D407E]	with no effect
MAEERVATRTQFPVSTESQKPRQKKAPEFPILEKQNWLIHLHYIRKDYEACKAVIKEQLQETQGLCEYAIYVQALIFRLEGNIQESLELFQTCAVLSPQSADNLKQVARSLFLLGKHKAAIEVYNEAAKLNQKDWEISHNLGVCYIYLKQFNKAQDQLHNALNLNRHDLTYIMLGKIHLLEGDLDKAIEVYKKAVEFSPENTELLTTLGLLYLQLGIYQKAFEHLGNALTYDPTNYKAILAAGSMMQTHGDFDVALTKYRVVACAVPESPPLWNNIGMCFFGKKKYVAAISCLKRANELAPFDWKILYNLGLVHLTMQQYASAFHFLSAAINFQPKMGELYMLLAVALTNLEDIENAKRAYAEAVHLDKCNPLVNLNYAVLLYNQGEKKNALAQYQEMEKKVSLLKDNSSLEFDSEMVEMAQKLGAALQVGEALVWTKPVKDPKSKHQTTSTSKPASFQQPLGSNQALGQAMSSAAAYRTLPSGAGGTSQFTKPPSLPLEPEPAVESSPTETSEQIREK [Y298E]	with no effect
MAEERVATRTQFPVSTESQKPRQKKAPEFPILEKQNWLIHLHYIRKDYEACKAVIKEQLQETQGLCEYAIYVQALIFRLEGNIQESLELFQTCAVLSPQSADNLKQVARSLFLLGKHKAAIEVYNEAAKLNQKDWEISHNLGVCYIYLKQFNKAQDQLHNALNLNRHDLTYIMLGKIHLLEGDLDKAIEVYKKAVEFSPENTELLTTLGLLYLQLGIYQKAFEHLGNALTYDPTNYKAILAAGSMMQTHGDFDVALTKYRVVACAVPESPPLWNNIGMCFFGKKKYVAAISCLKRANYLAPFDWKILYNLGLVHLTMQQYASAFHFLSAAINFQPKMGELYMLLAVALTNLEDIENAKRAYAEAVHLDKCNPLVNLNYAVLLYNQGEKKNALAQYQEMEKKVSLLKDNSSLEFDSEMVEMAQKLEAALQVGEALVWTKPVKDPKSKHQTTSTSKPASFQQPLGSNQALGQAMSSAAAYRTLPSGAGGTSQFTKPPSLPLEPEPAVESSPTETSEQIREK [G425E]	with no effect
MAEERVATRTQFPVSTESQKPRQKKAPEFPILEKQNWLIHLHYIRKDYEACKAVIKEQLQETQGLCEYAIYVQALIFRLEGNIQESLELFQTCAVLSPQSADNLKQVARSLFLLGKHKAAIEVYNEAAKLNQKDWEISHNLGVCYIYLKQFNKAQDQLHNALNLNRHDLTYIMLGKIHLLEGDLDKAIEVYKKAVEFSPENTELLTTLGLLYLQLGIYQKAFEHLGNALTYDPTNYKAILAAGSMMQTHGDFDVALTKYRVVACAVPESPPLWNNIGMCFFGKKKYVAAISCLKRANYLAPFDWKILYNLGLVHLTMQQYASAFHFLSAAINFQPKMGELYMLLAVALTNLEDIENAKRAYAEAVHLDKCNPLVNLNYAVLLYNQGEKKNALAQYQEMEKKESLLKDNSSLEFDSEMVEMAQKLGAALQVGEALVWTKPVKDPKSKHQTTSTSKPASFQQPLGSNQALGQAMSSAAAYRTLPSGAGGTSQFTKPPSLPLEPEPAVESSPTETSEQIREK [V402E]	with no effect
MAEERVATRTQFPVSTESQKPRQKKAPEFPILEKQNWLIHLHYIRKDYEACKAVIKEQLQETQGLCEYAIYVQALIFRLEGNIQESLELFQTCAVLSPQSADNLKQVARSLFLLGKHKAAIEVYNEAAKLNQKDWEISHNLGVCYIYLKQFNKAQDQLHNALNLNRHDLTYIMLGKIHLLEGDLDKAIEVYKKAVEFSPENTELLTTLGLLYLQLGIYQKAFEHLGNALTYDPTNYKAILAAGSMMQTHGDFDVALTKYRVVACAVPESPPLWNNIGMCFFGKKKYVAAISCLKRANYLAPFDWKILYNLGLVHLTMQQYASAFHFLSAAINFQPKMGELYMLLAVALTNLEDIENAKRAYAEAVHLDKCNPLVNLNYAVLLYNQGEKKNALAQYQEMEKKVSLLKDNSSLEFDSEMVEMAQKLGAALQVGEALVWTKPVKDPKSKHQTTSTSKPASFQQPLGSNQAKGQAMSSAAAYRTLPSGAGGTSQFTKPPSLPLEPEPAVESSPTETSEQIREK [L468K]	with no effect
MAEERVATRTQFPVSTESQKPRQKKAPEFPILEKQNWLIHLHYIRKDYEACKAVIKEQLQETQGLCEYAIYVQALIFRLEGNIQESLELFQTCAVLSPQSADNLKQVARSLFLLGKHKAAIEVYNEAAKLNQKDWEISHNLGVCYIYLKQFNKAQDQLHNALNLNRHDLTYIMLGKIHLLEGDLDKAIEVYKKAVEFSPENTELLTTLGLLYLQLGIYQKAFEHLGNALTYDPTNYKAILAAGSMMQTHGDFDVALTKYRVVACAVPESPPLWNNIGMCFFGKKKYVAAISCLKRANYLAPFDWKILYNLGLVHLTMQQYASAFHFLSAAINFQPKMGELYMLLAVALTNLEDIENAKRAYAEAVHLDKCNPLVNLNYAVLEYNQGEKKNALAQYQEMEKKVSLLKDNSSLEFDSEMVEMAQKLGAALQVGEALVWTKPVKDPKSKHQTTSTSKPASFQQPLGSNQALGQAMSSAAAYRTLPSGAGGTSQFTKPPSLPLEPEPAVESSPTETSEQIREK [L382E]	with no effect
MAEERVATRTQFPVSTESQKPRQKKAPEFPILEKQNWLIHLHYIRKDYEACKAVIKEQLQETQGLCEYAIYVQALIFRLEGNIQESLELFQTCAVLSPQSADNLKQVARSLFLLGKHKAAIEVYNEAAKLNQKDWEISHNLGVCYIYLKQFNKAQDQLHNALNLNRHDLTYIMLGKIHLLEGDLDKAIEVYKKAVEFSPENTELLTTLGLLYLQLGIYQKAFEHLGNALTYDPTNYKAILAAGSMMQTHGDFDVALTKYRVVACAVPESPPLWNNIGMCFFGKKKYVAAISCLKRANYLAPFDWKILYNLGLVHSTMQQYASAFHFLSAAINFQPKMGELYMLLAVALTNLEDIENAKRAYAEAVHLDKCNPLVNLNYAVLLYNQGEKKNALAQYQEMEKKVSLLKDNSSLEFDSEMVEMAQKLGAALQVGEALVWTKPVKDPKSKHQTTSTSKPASFQQPLGSNQALGQAMSSAAAYRTLPSGAGGTSQFTKPPSLPLEPEPAVESSPTETSEQIREK [L315S]	disrupting interaction strength
MAEERVATRTQFPVSTESQKPRQKKAPEFPILEKQNWLIHLHYIRKDYEACKAVIKEQLQETQGLCEYAIYVQALIFRLEGNIQESLELFQTCAVLSPQSADNLKQVARSLFLLGKHKAAIEVYNEAAKLNQKDWEISHNLGVCYIYLKQFNKAQDQLHNALNLNRHDLTYIMLGKIHLLEGDLDKAIEVYKKAVEFSPENTELLTTLGLLYLQLGIYQKAFEHLGNALTYDPTNYKAILAAGSMMQTHGDFDVALTKYRVVACAVPESPPLWNNIGMCFFGKKKYVAAISCLKRANYLAPFDWKELYNLGLVHLTMQQYASAFHFLSAAINFQPKMGELYMLLAVALTNLEDIENAKRAYAEAVHLDKCNPLVNLNYAVLLYNQGEKKNALAQYQEMEKKVSLLKDNSSLEFDSEMVEMAQKLGAALQVGEALVWTKPVKDPKSKHQTTSTSKPASFQQPLGSNQALGQAMSSAAAYRTLPSGAGGTSQFTKPPSLPLEPEPAVESSPTETSEQIREK [I306E]	with no effect
MAEERVATRTQFPVSTESQKPRQKKAPEFPILEKQNWLIHLHYIRKDYEACKAVIKEQLQETQGLCEYAIYVQALIFRLEGNIQESLELFQTCAVLSPQSADNLKQVARSLFLLGKHKAAIEVYNEAAKLNQKDWEISHNLGVCYIYLKQFNKAQDQLHNALNLNRHDLTYIMLGKIHLLEGDLDKAIEVYKKAVEFSPENTELLTTLGLLYLQLGIYQKAFEHLGNALTYDPTNYKAILAAGSMMQTHGDFDVALTKYRVVACAVPESKPLWNNIGMCFFGKKKYVAAISCLKRANYLAPFDWKILYNLGLVHLTMQQYASAFHFLSAAINFQPKMGELYMLLAVALTNLEDIENAKRAYAEAVHLDKCNPLVNLNYAVLLYNQGEKKNALAQYQEMEKKVSLLKDNSSLEFDSEMVEMAQKLGAALQVGEALVWTKPVKDPKSKHQTTSTSKPASFQQPLGSNQALGQAMSSAAAYRTLPSGAGGTSQFTKPPSLPLEPEPAVESSPTETSEQIREK [P270K]	with no effect
MAEERVATRTQFPVSTESQKPRQKKAPEFPILEKQNWLIHLHYIRKDYEACKAVIKEQLQETQGLCEYAIYVQALIFRLEGNIQESLELFQTCAVLSPQSADNLKQVARSLFLLGKHKAAIEVYNEAAKLNQKDWEISHNLGVCYIYLKQFNKAQDQLHNALNLNRHDLTYIMLGKIHLLEGDLDKAIEVYKKAVEFSPENTELLTTLGLLYLQLGIYQKAFEHLGNALTYDPTNYKAILAAGSMMQTHGDFDVALTKYRVVACAVPESPPLWNNIGMCFFGKKKYVAAISCLKRANYLAPFDWKILYNLGLVHLTMQQYASAFHFLSAAINFQPKMGELYMLLAVALTNLEDIENAKRAYAEVVHLDKCNPLVNLNYAVLLYNQGEKKNALAQYQEMEKKVSLLKDNSSLEFDSEMVEMAQKLGAALQVGEALVWTKPVKDPKSKHQTTSTSKPASFQQPLGSNQALGQAMSSAAAYRTLPSGAGGTSQFTKPPSLPLEPEPAVESSPTETSEQIREK [A364V]	disrupting interaction strength
MAEERVATRTQFPVSTESQKPRQKKAPEFPILEKQNWLIHLHYIRKDYEACKAVIKEQLQETQGLCEYAIYVQALIFRLEGNIQESLELFQTCAVLSPQSADNLKQVARSLFLLGKHKAAIEVYNEAAKLNQKDWEISHNLGVCYIYLKQFNKAQDQLHNALNLNRHDLTYIMLGKIHLLEGDLDKAIEVYKKAVEFSPENTELLTTLGLLYLQLGIYQKAFEHLGNALTYDPTNYKAILAAGSMMQTHGDFDVALTKYRVVACAVPESPPLWNNIGMCFFGKKKYVAAISCLKRANYLAPFDWKILYNLGLVHLTMQQYASAFHFTSAAINFQPKMGELYMLLAVALTNLEDIENAKRAYAEAVHLDKCNPLVNLNYAVLLYNQGEKKNALAQYQEMEKKVSLLKDNSSLEFDSEMVEMAQKLGAALQVGEALVWTKPVKDPKSKHQTTSTSKPASFQQPLGSNQALGQAMSSAAAYRTLPSGAGGTSQFTKPPSLPLEPEPAVESSPTETSEQIREK [L327T]	disrupting interaction strength

Source: IntAct's records for PubMed 29039417
